Assay results: publication PMC13645619

Legend:
[1] = molecular target: AP-7-168-stabilized β2AR dimer (construct PN1) (UniProt P07550); assay: BLI
[2] = molecular target: β2-adrenergic receptor (β2AR), construct PN1, monomeric (UniProt P07550); assay: BLI

Kd [1]: 3110 nM
Kd [2]: 1710 nM
Substance: heterotrimeric Gs (Gαsβ1γ2) (from UniProt P63092;P62873;P59768) (complex)
